According to article PMC11677236:

Biological target: pyruvate kinase M2 (PKM2), endogenous (human (endogenous in A375 and G361)) (UniProt P14618)
Experiment: native gel or EMSA; BN-PAGE of cell lysates with β-actin as loading control; A375 with TIPE interference, G361 with TIPE overexpression; dimer and tetramer bands of PKM2

pyruvate kinase M2 (PKM2), endogenous, P14618 1-531 (enzyme; other documents disagree on this pair), sequence (P14618 whole entry): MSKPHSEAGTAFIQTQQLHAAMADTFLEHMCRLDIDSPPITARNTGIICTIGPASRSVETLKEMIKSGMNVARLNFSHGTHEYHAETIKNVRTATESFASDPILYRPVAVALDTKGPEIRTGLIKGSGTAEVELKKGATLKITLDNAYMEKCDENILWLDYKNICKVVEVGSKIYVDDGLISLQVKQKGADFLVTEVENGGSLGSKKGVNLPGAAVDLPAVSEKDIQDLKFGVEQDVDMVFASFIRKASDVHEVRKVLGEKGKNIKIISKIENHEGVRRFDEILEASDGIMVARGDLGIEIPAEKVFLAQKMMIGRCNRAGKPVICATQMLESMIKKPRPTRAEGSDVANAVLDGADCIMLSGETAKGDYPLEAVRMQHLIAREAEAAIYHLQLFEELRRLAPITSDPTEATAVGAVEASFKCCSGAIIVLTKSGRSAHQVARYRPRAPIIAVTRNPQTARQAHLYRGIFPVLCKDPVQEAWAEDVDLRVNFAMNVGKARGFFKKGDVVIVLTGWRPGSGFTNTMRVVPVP

stoichiometry N: 2
Substance: pyruvate kinase M2 (PKM2), endogenous, P14618 1-531 (enzyme; other documents disagree on this pair)
